Reference: article doi:10.1101/138099 (bioRxiv, 2017)
Changes are numbered by the printed parent chain. Names and notes keep the numbering of the source. Values joined by “and” are separate entries in the source; they are usually repeats but may differ in a detail not shown here. Equal entries are not always repeated. Values belong to the molecule of their own block, whether it stands above or below them.

What was measured:
[1] = target: YweA_(BslA171-181), recombinant chimeric protein (Bacillus subtilis); assay: SEC + other: non-reducing SDS-PAGE
[2] = target: YweA_(BslA171-181 C180A), recombinant chimeric protein (Bacillus subtilis) (UniProt P71014); assay: non-reducing SDS-PAGE
[3] = target: YweA_(BslA171-181 C178A), recombinant chimeric protein (Bacillus subtilis) (UniProt P71014); assay: non-reducing SDS-PAGE
[4] = target: the molecule itself; assay: cross-linking
[5] = target: the molecule itself; assay: SEC + other: non-reducing SDS-PAGE

stoichiometry N [1]: 2
Molecule: YweA_(BslA171-181), recombinant chimeric protein

stoichiometry N [2]: 2
Molecule: YweA_(BslA171-181 C180A), recombinant chimeric protein (from UniProt P71014 171-181)

stoichiometry N [3]: 2
Molecule: YweA_(BslA171-181 C178A), recombinant chimeric protein (from UniProt P71014 171-181)

B1: BslA, wild type, from the B. subtilis NCIB3610 biofilm (natural protein, UniProt P71014 29-181, looked up)
chain: AESTSTKAHTESTMRTQSTASLFATITGASKTEWSFSDIELTYRPNTLLSLGVMEFTLPSGFTANTKDTLNGNALRTTQILNNGKTVRVPLALDLLGAGEFKLKLNNKTLPAAGTYTFRAENKSLSIGNKFYAEASIDVAKRSTPPTQPCGCN
stoichiometry N [4]: 2 and 4

B2: BslA_(C180A) produced in the B. subtilis bslA deletion strain (NRS5178) (natural protein, Bacillus subtilis, UniProt P71014 29-181, looked up)
chain: B1 chain with C152A
stoichiometry N [4]: 2

B3: BslA_(C178A) produced in the B. subtilis bslA deletion strain (NRS5177) (natural protein, Bacillus subtilis, UniProt P71014 29-181, looked up)
chain: B1 chain with C150A
stoichiometry N [4]: 2

B4: Recombinant BslA_(42-181) (domain or fragment, Bacillus subtilis, UniProt P71014 42-181, looked up)
chain: MRTQSTASLFATITGASKTEWSFSDIELTYRPNTLLSLGVMEFTLPSGFTANTKDTLNGNALRTTQILNNGKTVRVPLALDLLGAGEFKLKLNNKTLPAAGTYTFRAENKSLSIGNKFYAEASIDVAKRSTPPTQPCGCN
stoichiometry N [5]: 2 and 4

B5: BslA_(C180A), recombinant BslA_(42-181) variant (domain or fragment, Bacillus subtilis, UniProt P71014 42-181, looked up)
chain: B4 chain with C139A
stoichiometry N [5]: 2

B6: BslA_(C178A), recombinant BslA_(42-181) variant (domain or fragment, Bacillus subtilis, UniProt P71014 42-181, looked up)
chain: B4 chain with C137A
stoichiometry N [5]: 2
